# Values quoted from earlier work as cited in PMC2033707.
# Target: EGF (UniProt P01133)
# UniProt P01133, sequence (P01133 971-1023): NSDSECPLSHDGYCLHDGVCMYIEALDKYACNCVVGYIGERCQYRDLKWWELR
substance,measurement,value
EGFR (from UniProt P00533),Kd,1 nM
